Among the data in a protein production outcome set (Wang et al. 2014) are protein production values, retold here.

The data set is described as follows: label from the status in PepcDB records.
Consider “MFKEVGEPNFPKLEEEVLAFWKREKIFQKSVENRKGGPRYTVYEGPPTANGLPHVGHAQARSYKDLFPRYKTMRGYYAPRRAGWDTHGLPVELEVEKKLGLKSKREIEAYGIERFNQACRESVFTYEKEWEAFTERIAYWVDLENAYATLEPTYIESIWWSLKNLFDRGLLYRDHKVVPYCPRCGTPLSSHEVALGYKEIQDPSVYVRFPLKEPKKLGLEKASLLIWTTTPWTLPGNVAAAVHPEYTYAAFQVGDEALILEEGLGRKLLGEGTPVLKTFPGKALEGLPYTPPYPQALEKGYFVVLADYVSQEDGTGIVHQAPAFGAEDLETARVYGLPLLKTVDEEGKLLVEPFKGLYFREANRAILRDLRGRGLLFKEESYLHSYPHCWRCSTPLMYYATESWFIKNTLFKDELIRKNQEIHWVPPHIKEGRYGEWLKNLVDWALSRNRYWGTPLPIWVCQACGKEEAIGSFQELKARATKPLPEPFDPHRPYVDQVELACACGGTMRRVPYVIDVWYDSGAMPFASLHYPFEHEEVFRESFPADFIAEGIDQTRGWFNFLHQLGVMLFGSIAFKNVICHGLILYEMGQKMSKSKGNVVDPWDIIREFGADALRWYIYVSAPPEADRRFGPNLVRETVRDYFLTLWNVYSFFVTYANLDRPDLKNPPPPEKRPEMDRWLLARMQDLIQRVTEALEAYDPTTSARALRDFVVEDLSQWYVRRNRRRFWKNEDALDREAAYATLYEALVLVATLAAPFTPFLAEVLWQNLVRSVRPEAKESVHLADWPEADPALADEALVAQMRAVLKVVDLARAARAKSGVKTRTPLPLLLVTAPTALEREGLKRFAHEIAEELNVKEVRVLEPGEEILSYRVLPNLKLLGRKYGKLVPKIREALQRERERAAALALKGEAIPLEVEGEALTLLPEEVLLEAEAPKGYQALEKDGYVAALKVEVTEALRMEGLARDLIRLLQQARKDMGLKVSDRIRVGYEAEGPYLEALKRHGPWIAEEVLATAFGEGLFGGFEARVEDEEGKAVFHLARAE”, for which the protein production entry was “not failed”.

Take “MFKGTNNASDFTLMSFSDRQAKNHEPRLKARRRGCLIVLADRIIDALYHPAGPCQGADKARQSAIQHFRLDVPEGQCHRLRHLLDMRPAMTQTQPAPACSLPCSILLLAGGRGSRMGGQDKGLVAWRGQPLIAHVQAVVRPLSDDLIISCNRNAERYRAYADRLVEDGQKDFPGPLAGVLAGLATARHPWLLVLACDAPQIDAALIQALLDARGNDTRPVMVQQAGQWQPMFSLIPTALLGDLRQAWDNGERSLLRALAAHGLRPLPCAADDPRLSNFNTPELLSEAGPKPLA”: the protein production result is “failed”.

In the case of “MFKKHNFHFNWLPLILISTVSIMLIFNIRSILSEGIRPFLSVLTPFFWAFGIAYLINPLMMLIEKKFKLKRAFSLMISYILVIICVYILIAIIVPTIFDSLSELFSNLSEYASSAESWINNTLASMNVPLDLNHLNTSATEFISKTSTLLSNIVGSLLTQTIKITSSVVKFVFGFIISIYMLMDKETLIEGCKKIIIAVMPSEKSSELFISFMAEAHNIFSRFIIGKIIDSLIIGVLCYIGLLLMGTQYAVLISFIVGLTNMIPYFGPFIGMIPAFLLTLIVQPSMAIWVLLFIFILQQFDGWYLGPKILGDQVGVSPLFIIFAVTVGGGIFGVLGMFLSVPIIALIKIYTEKFIEYRLENKKQNFSE”, the protein production entry is recorded as “failed”.

Consider “MFKNKLAVLFTCLSVFSFSAQSGSFDTVTLGSKGGIQDGNLTAFLIKSEADSNFVMLDAGSVVNGLIVSEQKGAFKDITVPDSSPYTKVGYLLKDKIKGYFISHAHLDHVAGLIISSPDDSKKPIYGLAATNKDLMKNYFNWSAWPNFGNKGEGFKLNKYNYVDLQPGVWSPIAETTMSVMSLPLSHSGGQSTVFILKDSEGDVFAYFGDTGPDEVEKSSAMKTAWSALAPFVKQGKLKGIIIEVSFTNETPDKSLFGHLTPNWLVKELSVLEDMNGKGSLNDLNVAISHIKYSLKNSEDPKVIIKKQLAEANDLGVNFIFPEQGDSLQF”, for which the protein production result is on record as “failed”.

On to “MFKVLAEAFASARLRLGAILFSPQSLAFLPAFCLGLYWYGGETALMITALVFPVFFLVARAKLAETVTTSRQDSVLGVMQPDGFQDIVAARFREARAGGLISTVFQIEIDDHTSLVERHGQRAAEVISTTSADRIAAVLRDRDAVTHLDTFKYAVCLEPVRQMDLELCIQLAGRIQAALEEPIALDATAVCITSSVGFCQQTKVLSRSGEAWLAAAGHALREAHLNGPGAIRAYSEKMQQKSEIRAELREEVAQALEKGQIKPWFQPQISTDTGLVTGFEALARWNHPKRGMVPPGAFLTAIEQAGMLEKLAEVMIFHAFTALKAWDSAGVCVPQVGVNFAGPELSNPKLVDKIIWELDRFDLAPERLAVEVLETVVANSPDDTITRNINGLSKLGCRIDLDDFGTGHASISSIRRFSVSRIKIDRSFVIKADRDPEQQRMISAILTMAERLEVETLAEGVESVGEHALLAQLGCDHVQGFGIGKPMPFDQTLDWIASHNAKLQATPQILPNKLRLEHHHHHH”, for which the protein production result was “not failed”.

With “MFKVTFAFENGSEVEAFANAGDNLLEVARGANVAIDAPCSGNGACGKCRVQLKGGELDSKKTLHISDEEFEKGWRLACMSKICADVEVLVPDIASAYKSRMKVA”, the protein production entry was “failed”.

As for “MFLGAAMAQVSLCMIVRDEAELLPRCLASVKDQVDELIVLDTGSRDRTPAIATEAGAKLLHTDWADDFSAARNQAIAAATGDWILVLDADEELILEAWTELRSQLDQPEALAFTVLREETQAGQVPYSRLSRLFRNRPDIRFQRPYHELVDDSLLALQQQEPNWRITAWPTPVIRHYGYGRDRLQQRGTAERMRQSLETWLADHPEDAYLCSKLGGLLVQEGDLKAAQRWLKQGLKQGRPEPAVRYELLYHLALLERRQGDLDAAIDRYQAALQEPVDAIHKLGAWVNLSHLYRDRGQLGLAYDAARQAVAAAPQATVALTALGLAARAIGNYPEAIAAYQQALQLDPNDPSLYQNLGAVLFQVGQLEASYAAFRQAIAGYEQQGSPEAQRLELRLQAMGIRL”, the protein production result was “failed”.

Take “MFLKLFSLFLIIPLVEIYLLIKIGGIIGAFNTVLVILITASLGAYLTKSQGFRVFHQIQDATRQGYMPGNELLHGLFVLIGGFALLTPGFLTDAIGFSMLIPQIREIYVGIAKGIIRKKIEQGNFQMRVYTDFR”: the protein production entry is reported as “failed”.

As to “MFLKRIELQREKVLSFQEYPFSIPAIKHFQRLELKSRVTFFVGENGSGKSTLLEAIADKCEFNTAGGGRNNYYEVDASESALGDYIRLSWLPKVSNGFFLRAESFYHFASHVDEVDARHAYGGRSLHHQSHGEAFLSLFANRFNRKGIYLLDEPEAALSPRRQLSFLAILHDLVSSGDSQFIIATHSPILLGYPHATILSFDHGTIEETTYEQTEHYQLTRYFLENRERMLRELLGELEHHHHHH”, the protein production entry was “failed”.

Turning to “MFLLQQLDHTVKKMKSQLANFFTIINLSCGVFAILFTLQGELRVSLLFITIAAVFDRLDGAAARKFDCASDFGKQLDSLTDIISFGVAPALMIYHAILFDFGYAGALFTVFYIACGAIRLARFNITENHNSFIGLPITAAGCILTLLYLAVGYWPDYTFMFAILILSFLMVSTIRVRKM”, the protein production entry is on record as “failed”.

Turning to “MFLRIANKILKRLAGVQVIPVNKKRLSVLDNKHLHIASNSILLEGTSLDFRQEISSSDTYVSIGGYCLIKAIFTFETTTGLITIGNNVHIGNAHFICRSAITIHDDVTMAWGITLYDHNSHSIHWEERKDDNKTCYEDFVQHHGNNIVNKNWINVLSRPIVIESKAWIGFNVTILKGVTIGEGAVIGACSVVTKDVPAWTVVAGNPAAVVKHLQKPE”, the protein production entry is on record as “failed”.

Consider “MFLVNNIRCSNMAEFPYTTVPGKIKPFFQKIQEAGLPSKVTQKWINSIGFTSSNDPSIIPLLKKLGFIDRSGVPTELWARYRDKDLAPKVMAEAIKNAYKELFETYPDAYRKDKEALRNFFASQTGKAENTIEKMIQTFKALCELADFESNSEEYPHNEVVPSREGLTTLMEKQTPKGLTINVNIQLQLPATTDEEVYDKLFRSLKRNLLSE”, for which the protein production entry was “not failed”.

Turning to “MFMFRNCAVLLVIGSICCFIYGLFRLHVEVEPNACRMTYMFGEPMFAKVGVRDGDQYPNYALYYYYEGLRQPLDPLKRRMTGAPVIFVPGNAGSYKQVRSLASVALRKAMSNDAGIHLDYYTIDYDEELSALYGGYLHRQQSYLKLCIRTILSIYEGRTEQPSIVLIGHSMGGKLAQSVLVDPAIGQHINTIISISTPLDQPVLNLDTQLEEFYDQTDAVLSKLRTATVPTMTTNVCDSLHQRPPSVQRMASQDSSARLDNVLLISTGGGNRDLLVRPGLTSSRFNDLHAMTSAIPKVSLSCDHLSAVWCLQFMQAINRFLFSVAYVREDRSSIAFGTNKQRNLQTALSTFVKPRRRQQNTVRFGAAGNWHEERRLVINKYFTNGLKGTFFDLIGLQRQERYRKAAIEALNVDDEDWLFGCSAEDNNKTGQLYCEKATSLMHLVQWLPNEDREPRSIALLDLHNLRKTYVHWTHLLVRLPPSAKRIGYNLDIYDPKERVTDIKMPRWYTMAKLPLINETLQGTLHHRVRISEMVDPYQSIRVIVEPLQCINPEYRVTARICVPWAAGFERFQTLKSFDQKPQLYVNVPTLVPRHYNTTLNPVTLELYLDPTCRYRISYEYSYSSALSRLVLEFYGWLPAHLVCVLLIVLRKQVETFYDVGTFRSLRPYVGYLQYTSLYIVTACRLLKKLIISSRVFPEPEPLDYSINVSIVIHCAAIALSLLATLGTWLALTLYGNAFYRLALRITRLSQATSNVMISIMTHLPITYGILTIATAMGTCSGVGLLLAFVFYFLMLSNAYKDYLEDFLWQKAANLVRGKPSAVTEQEDATEEQNEEQNALKQNDEQKQQQQEEEEPEACVGLQNFSFHVTLLLMLFVQLLLNAPSSLAWLRSRRHGINLPDPSLYPSIVVLASLSLLLQLRAPQKCQGYWMLSIAFYILAGVVLLYCQAAIYRLTYVIAGAFALLSAHQSLWILWGRVSRV”, the protein production entry is given as “failed”.

Consider “MFMGKLPHQADLIGALIEAAGANGIRAGAIQVIGALQGAKLGFYDQWSKSYRELPFAKPLEIVSGLGNISLRDGRPFVHLHLSISDEEGKVFGGHALEGCTIFAAEYAIMPLPGSAPVRVFDETTGLFLWEREQYPASGQKGLSPELERALLNPLEHHHHHH”, for which the protein production result is “not failed”.

For the sequence “MFMIPAWLWIGLIAFALAFVCNRLSPRDLRWFNRLRRPSWLTFEWAIPFIWIAIFIAGAISATLAWNATADPGHRWGLMVGYLLLELTVMAYTPVMCKLRSLRVGSIIGATGFFVGLALVIAVSQVSTTAFGFLVPFLLWSPIGTYVTWAMIPLNPGEI”, the protein production entry was “failed”.

As for “MFMKKWIGIDLGTTNTVASYFDVSSKIILNERGERITPSIVSFSDKDVLVGSAAKNQILVNPQKTFYNFKTNIGSNNFYKVDGEFYKAEYISAHLLASVKRNAEKFLDEEIENAVITVPAYFSEIQRRCVVEAANFAGLNCKAILNEPTAAAIAYAFERQIDGIFLIYDLGGGTFDVTLMEKQGDTYTVLSVKGQSRLGGNDFNKIIEKYVLDSFKNKYPDFNLEDIFLLEQLRERIEEGKKNLSVMEEVDITLLFLDGKHLNYNLKRDEFNSMISEYIDKTIQLSMECIADSGVDISSVSKIILSGGSTRIPLIEKVLKESFPSATILDALNQDEVVAIGAGIHAFSLSRNDSVIKFKDVTPYSLGLEIKDNEFFTLIKRNTALPISRSKLFTTTNDYQDEIEIHILQGEYKKASLNYSIGRFSFGNIQKALKGIPKIEVLFTLNESGILSVNAKDLETNSSNFIEIKITSSSDNVAKESLSNTFTSIID”, the protein production entry is given as “failed”.

“MFNQLVKVIPNLFTIGNLLCGVFSITLNMSEYLGAASILIFFSAVLDFLDGRIARKLKVNSEFGVELDSLADIVSFGVAPALLFHTIATPSILTSLAFILFPTMGALRLAKFSIKPTIGYFKGLPIPAAGLSLAGMALFSYSNAWITLILALLMVSPIRFKKF”: the protein production entry is reported as “not failed”.

On to “MFPFENQRLPISALIHKKNHSRLQPHPLFEEQPMKILLIGANGTIGSAVARELEQRHEVVRIGRTSGDFQVDISDSQSIRALFEKTGRFDALVCAAGNVTFAPLGEMTAEHFSLGLEDKLMGQVNLLLIGREYANDGASFTFTTGVLSHDPIRSGASAALVNGAIDSFVRAAAIELPRGLRVNSISPNVLLEAMGSYAPYFRGFKPVPAADVALAYAKSVEGLQTGQTYRVG”, for which the protein production entry is given as “failed”.
